This series is described as follows: yeast display, Sf9 membrane polyspecificity reagent, FACS + sequencing; frameworks hold sequencing errors. The method in brief: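 Nanobodies from a synthetic yeast display library (Saccharomyces cerevisiae BJ5465), induced 36–48 hours with galactose, were stained 1 hour at 4 °C with 10% biotinylated, detergent-solubilized Sf9 membrane reagent, enriched on streptavidin microbeads, then FACS-sorted. Anti-HA (expression) and streptavidin (reagent binding) fluorescence set low and high (top ~1%) gates. Polyreactivity labels come from the gate of origin. Genes were colony-PCR amplified, MiSeq 2 × 250 sequenced and filtered by CDR length.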
For the sequence “QVQLVESGGGLVQAGGSLRLSCAASGSIFWSYAMGWYRQAPGKERELVAAIRRGGSTNYADSVKGRFTISRDNAKNTVYLQMNSLKPEDTAVYYCAKSRGVRREPPKYATTYNYWGQGTQVTVSS”, the “polyreactivity (PSR sort gate)” value is given as “low polyreactivity”. The same measure for “QVQLVESGAGLVQAGGSLRLSCAASGRTFWSNAMGWYRQAPGKEREFVAAIRSTVGSTYYADSVKGRFTISRDNAKNTVYLQMNSLNPEDTAVYYCYVSSGYYAYYYWGQGTQVTVSS”: “high polyreactivity”. The same measure for “QVQLVESGGGLVQAGGSLRLSCAASGFIFRRYVMGWYRQAPGKERELVAAISNGGGRTYYADSVKGRFTISRDNAKNTVYLQMNSLKPEDTAVYYCAAYPRGPLAPDYDYWGQGTQVTVSS”: “high polyreactivity”; for “QVQLVESGGGLVQAGGSLRLSCAASGSIFGYYAMGWYRLAPGKERELVAAINWRGTSTYYADSVKGRFTISRDNAKNTVYLQMISLKPEDTAVYYCAARRSVGGYGYWGQGTQVTVSS”: “high polyreactivity”; for “QVQLVESGGGLVQAGGSLRISCAASGPTFPLYAMGGNRQAPGKERELVAAIRTGGSTNYADSVKGRFTISRDNAKNTVYLQMNSLKPEDTAVSYCAAVQRTDRSAHYSWGHGTQVTVSS”: “low polyreactivity”. With “QVQLVESGGGLVQAGGSLRLSCAASGNIFPRYAMGLYRQAPGKERELVAAITWRTSSTYYADSVKGRFTISRDNAKNTVYLQMNSLKPEDTAVYFCAKTSSRIAGEYWGQGTQVTVSS”, the “polyreactivity (PSR sort gate)” value was “low polyreactivity”. The same measure for “QVQLVESGGGLVQAGGSLRLSCAASGSTIYNYAMGSYRPAPGKVRELVASITWNGGSTYYADSVKGRFTISRDNAKNTVYLQMNSLKPEDTAVYYCAAEWTWTYPYDYWGQGTQVTVSS”: “low polyreactivity”. Next, “QVQLVESGGGLVQAGGSLRLSCAASGFPIHAYVMGWYRQAPGKERELVAAISSGGSTYYADSVKGRFTISRDNAKKTVYLQMNSLKPEDTAVYYCAAGYPYYWHFDYWGQGTQVTVSS”: “low polyreactivity”.

As to “QVQLVESGGGLVQAGGSLRLSCAASGSTYTHNTMGWYRQAPGKERELVAAISKSGGRTYYADSVKGRFTISRDHAKNTVYLQMNSLKPEVTAVYYCAARVTGVGDYYWGQGTQVTGSS”, the “polyreactivity (PSR sort gate)” value is reported as “high polyreactivity”. Next, “QVQLVESGGGLVQAGGSLRLSCAASGRTFYFNAMGWYRQAPGKERELVATITSDGSTNYADSVKGRFTISRDNAKNTVYLQMNSLKPEDTAVYYCAADYYRDIWPWYPLYNYWGQGTQVTVSS”: “low polyreactivity”. The same measure for “QVHLVESGGGLVQAGGSLRLSCAASGSTFATNAMGWYRQAPGIERELVAAITDGGSTNYADSVKGRFTISRDNAKNTVYLQMNSLKPEDTAVYYCAADGFKTVLPEYDYWGQGTQVTVSS”: “low polyreactivity”; for “QVQLVESGGGLVQAGGSLRLSCAASGLTFSSYAMGWYRQAPGKERELVAAISLSGGRTYYADSVKGRFTISRDNAKNTVYLQMNSLKPEDTAVYYCAARRPNLQHANDYWGQGTQVTVSS”: “high polyreactivity”. The same measure for “QVQLVESVGGLVQAGGSLRLSCAASGGTFFYNSMGWYRQAPGKEREFVAAINGGTSTNYADSVKGRFTISRDNAKNTVYLQMNSLKPEDTAVYYCAAVYRRLGRFDWYDYWGQGTQVTVSS”: “low polyreactivity”; for “QVQLVESGGGLVQAGGSLRLSCAASGSTFPRNAMGWYRQAPGKERELVAGISRGSSTNYADSVKGRFTISRDNAKNTVYLQMNSLKPEDTAVYYCAAALSVTARLDYWGQGTQVTVSS”: “low polyreactivity”; for “QVHLVESGGGLVQAGGSLLLSCAASGIIFSYYAMGWYRQAPGKERELVAAISRSGVRPYYADSVKGRFTISRDNAKHTVYLQMYSLKPEDTAVYYCNAEFSPYPYDYWGQGTQVSVSS”: “high polyreactivity”.

As to “PVQLVESGGGLVQAGGSLRLSCADSGSIFRKYARGWYRQAPGKERELVAAITYGGSSTYYADSVKGRFTISRDNAKKTVYLQRNSLKPQDTAVYYFINDRPSYPAYGHTQYVVQMDYWGQGTQVTVSS”, the “polyreactivity (PSR sort gate)” value is “low polyreactivity”. Next, “QVQLVESGGGLVQAGGSLRLSCAASGRIFRVYAMGWYRQAPGKERELVAAISWSGGRTYYADSVKGRFTISRDNAKNTVYLQMNSLKPEDTAVYYCAAVRYERGLWSDYWGQGTQVTVSS”: “high polyreactivity”. Next, “QVQLVESGGGLVQAGGSLRLSCAASGITFRFYAMGWYRQAPGKERELVAVISRGGGTTYYADSVKGRFTISRDNAKNTVYLQMNSLKPEDTAVYYCNAVIAWYRSDEYDYWGQGTQVTVSS”: “high polyreactivity”. Take “QVQLVESGGGLVQAGRSLPLSCAASGRIIELYGMGWKRPATGKERELVAAMSYGGGSTYYAESVKGRFTISRDNAKNTVYLQMNSLKPEDTAVYYCAARYRTLTKYYWGQGTQVTVSS”: the “polyreactivity (PSR sort gate)” value is reported as “low polyreactivity”. In the case of “QVQLVDSGGGLVQAGGSLPLSCAASGFSFVYYAMAWYREAPGKEREFVAAITERGGSTDYADSVKGRFTISRDNAKNTVYLQMNSLKPEDTAVYYCASRNAYVYGMDYWGQGTQVTVSS”, the “polyreactivity (PSR sort gate)” value is given as “low polyreactivity”. The same measure for “QVQLVESGGGLVQAGGSLRLSCAASGRIISSYAMVWYRQAPGKETELVAAISWDGGSTYYADSVKGRFTISRDNANNTVYLQMNSLKPEDTAVYYCATDATRPWYDYWGQGTQVTVSS”: “low polyreactivity”; for “QVQLVESGGGLVQAGGSLRLSCAASGSIFGPYVKGWYSQAPGKEREFVAAIRGSGGSTYYADSVKGRFTISRDNAKKTVYLQMNSLKPEDTAVYYCNARLKYTLYYYWGQGTQVTVSS”: “high polyreactivity”. The same measure for “QVQLVESGGGLVQAGGSLRLSCAASGSTIGDNAMGWYRQAPGKERELVASISWSGASTYYADSVKGRFTISRDNAKNTVYLQMNSLKPEDTAVYYCAVYYSYYSHLYHLLFSYWGQGTQVTVSS”: “low polyreactivity”. In the case of “QVQLVESGGCLVQAGGSPRLSCAASGSILTLYAMGWYRQAPGKERELVAAITSGERTNYADSVKGRFTISRDNAKNTVYLQMNSLKPEDTAVYYCATKRWWGRYDYWGQGTQVTVSS”, the “polyreactivity (PSR sort gate)” value is “high polyreactivity”. On to “QVQLVESGGGLVQAGGSLRLSCAASGGTFGYYTMGWYRPAPGKERELVSAISSGGGTDYADSVKGRFTISRDNAKNTVYLQMNSLKPEDTAVYYCNAKWLEWHYVFLPSYTMDYWGQGTQVTVSS”, for which the “polyreactivity (PSR sort gate)” value was “low polyreactivity”. Next, “QVQLVESGGGLVQAGGSIRISCAASGITFIDYTMGWYRQAPGKERELVAVITKTGYRTYYADSVKGRFTISRDNANNSDYLQMNSLNRSDSAVYYCNALYYIHYYEGYGYWGQGTQVTVSS”: “high polyreactivity”; “QVQLVESGGGLVQAGGSLSLSCAASGIIIYEYAMGWYRQAPGKEMELVAAISNGGSTYYADSVKGRFTISRDNAKNTVYLQMNSLKPEDTAVYYCAARGYFDALFDYWGQGTQVTVSS”: “low polyreactivity”.

For the sequence “QVQLVESGGGLVQAGGSLRLSCAASGSTFVAYPMGWYRQAPGKERELVATISSGGNTKYADSVKGRFTISRDNAKNTVYLQMNSVKPEDTAVYYCNAGRYRYRYRSYPYDYWGQGTQVTVSS”, the “polyreactivity (PSR sort gate)” value is “high polyreactivity”. The same measure for “QVQLVESGGGIVQAGGSLRLSCAASGRTFSSYARGWYRQAPGKERELVAAISSDGVDTYYADSVKGRFTISRDNAKNTVYLQMNSLKPEDTAVYYCNAEEGGPEYAYSYYRMDYWGQGTQVTVSS”: “low polyreactivity”. Take “HVQHVDSGGGLVQAGGSLRLSFAAYGRIFVNNAMGWYRQATGKERELVAAISQNGGRTYYADSVKGRFTISRDNAKNTVYLQMNSLKPEDTAVYYCAAGQARAGLIGGYWGQGTQVTVSS”: the “polyreactivity (PSR sort gate)” value is on record as “high polyreactivity”. As for “QVQLVESGGGLVQAGGSLRLSCAASGRTFPWYVMGWYRQAPGKERELVAAISSGGGKYYADSVKGRFTISRDNAKNTVFLQMNSLKPEDTAVYYCAGRLYYRRSFVREMYYWGQGSQVTVSS”, the “polyreactivity (PSR sort gate)” value was “high polyreactivity”. Take “QVQLVESGGGLVQAGGSLRLICAASGSTILVYAMGCYRQAPWKEMELVAAITQIDGSTYYADSVKGRFTISRDNAKNTVYLQMNSLKPEDTAVFYCAARFFWTYEYDYWGQATQVTVSS”: the “polyreactivity (PSR sort gate)” value is given as “low polyreactivity”. The same measure for “QVQLVESGVGLVQAGGSLRLSCAASGSIFYHYVMGWYRQAPGKERELVAGISWSGVSTYYADSVKGRFTISRDNAKNTVYLQMNSLKPEDTADYYCAAVYRQSRLHTFGYWGQGTQVTVSS”: “high polyreactivity”.

With “QFQLVESGGGLVQAGGSLRLSCAASGRTFQHNVMGWYIQAPGKERELVASITCRGGSTYYADSVKGRFTISRDNAKNTVYLQMNSLKPEDTAVYYCAARNGFRRVRFDYWGQGTQVTVSS”, the “polyreactivity (PSR sort gate)” value is recorded as “low polyreactivity”. The same measure for “QVQLVESGGGLVQAGGSLRLSCAASGRILASNVMGWYRQAPGKEREFVASITYSGSSTYYADSVKGRFTISRDNAKNTVYLQMNSLKPEDTAVYYCATRYGYSDGDYWGQGTQVTVSS”: “low polyreactivity”; for “QVQLQESGGGLVQAGGSLRLSCAASGSISGPHLMGWYRQAPGQEREFVAAINVGANTYYADNVKGRFTISRDNAKNTLYLQMNSLKPEDTAVYYCAAVYYGDIGHEYWGQGTQVTVSC”: “low polyreactivity”; for “QVQLVESGGGLVQAGGSLRLSCAASGSTFRAYAMGWYRQAPGKEREFVADISWSGGSTYYADSVKGRFTISRDNAKNTVYLQMNSLKPEDSAVYYCAAEAAPLIIVTYDYWGQGTQVTVSS”: “low polyreactivity”. For the sequence “QVQLGESGGGLCQAGGSLRLSCAASGSIIAGYTMGWYRPAPGNARELVAGIRRGGSTNYADSVKGRVTISRDNAKNTVYLQMNSLKPEDTAVYYCNAQLTRSYVLRTFDYWGQGTQVTVSS”, the “polyreactivity (PSR sort gate)” value was “high polyreactivity”. Next, “QVQLVESGGGLVQAGGSLRLSCAASGSTFLVNAMGWYRQAPGKERELVAAISRSTGSTYYADSVKGRFTISRDNAKNTVYLQMNSLKPEDTAVYYCAVYRHGYGYNYWGQGSQVTVSS”: “high polyreactivity”. Next, “QDQHVESAGGVVQTGGSLRLSGAATGSIFGEYAMGWYRQPPGQEREFVADITRSDGSTYYADSVKGRFTISRDHAKNTVYFQMNSMKPEYTAVYYCAADSVLDRPVLYLGPWYLGDYWGQGTLVTVSS”: “low polyreactivity”; “QVQLVESGGGLVQAGGSLRLSCAASGRTFTHYAMGWYRQAPGKERELVAAISSGGGTYYADSVKGRFTISRDNAKNTVYLQMNSLKPEDTAVYYCNADYTNYHDPFRTYGYWGQGTQVTVSS”: “low polyreactivity”.
